Numbering of substitutions follows the chain as printed. In names and notes the source's numbering stands. No end group written: not given here. TMR = tetramethyl rhodamine dye

Holding throughout (assay): fluorescence polarisation; 25 °C after warming to 37 °C (7 min ramp, 2 min at 37 °C), 1 min on ice and 3 min at 25 °C; unlabeled Rb^P against 1.5 nM TMR-E2F1^TD or 7.5 nM TMR-E7^LxCxE; 25 mM Tris pH 8.0, 200 mM NaCl, 1 mM DTT, 0.1% Tween-20; apparent Kd
Settings in all cases: both partners purified

The target in experiment [1] is T1, retinoblastoma protein pocket domain (Rb^P), wild type (human, UniProt P06400 380-788).
T1 construct: also called WT Rb^P; WT
T1 sequence (looked up): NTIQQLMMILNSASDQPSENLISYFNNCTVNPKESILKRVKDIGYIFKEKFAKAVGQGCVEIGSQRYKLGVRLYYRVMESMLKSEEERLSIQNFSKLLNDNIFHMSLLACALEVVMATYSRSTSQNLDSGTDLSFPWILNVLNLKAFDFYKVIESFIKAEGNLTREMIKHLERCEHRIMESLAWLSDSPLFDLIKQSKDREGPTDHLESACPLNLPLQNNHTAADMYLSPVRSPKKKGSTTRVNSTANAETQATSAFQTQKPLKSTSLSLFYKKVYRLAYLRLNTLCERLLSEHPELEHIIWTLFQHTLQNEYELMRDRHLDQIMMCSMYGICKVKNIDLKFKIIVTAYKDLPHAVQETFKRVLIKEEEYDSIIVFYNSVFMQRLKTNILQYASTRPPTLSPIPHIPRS

Experiment [2] concerns the target T2, Rb^P E554K (human, UniProt P06400 380-788, E554K).
T2 construct: also called variant 28
T2 sequence (looked up): T1 sequence (looked up) with E175K

The target in experiment [3] is T3, Rb^P I703F (human, UniProt P06400 380-788, I703F).
T3 construct: also called variant 64
T3 sequence (looked up): T1 sequence (looked up) with I324F

Experiment [4] concerns the target T4, Rb^P M704V (human, UniProt P06400 380-788, M704V).
T4 construct: also called variant 66
T4 sequence (looked up): T1 sequence (looked up) with M325V

Experiment [5] deals with T5, Rb^P S751Y (human, UniProt P06400 380-788, S751Y).
T5 construct: also called variant 72
T5 sequence (looked up): T1 sequence (looked up) with S372Y

B1: TMR-E2F1^TD, peptide of the E2F1 transactivation domain (peptide)
peptide: {TMR}-GEGIRDLFDCDFGDLTPLD
notes: also called E2F^TD; source: synthetic peptide, bought: GenScript
Take B1: the Kd in experiment [1] is 17 nM; in experiment [2], 1740 nM; in experiment [3], 94 nM; in experiment [4] it was 46 nM; in experiment [5], 28 nM.

B2: TMR-E7^LxCxE, LxCxE peptide of the E7 oncoprotein from HPV (peptide)
peptide: DLYCYEQLN
modifications: also: TMR label, position not given here
notes: source: synthetic peptide, bought: GenScript
As to B2, the Kd in experiment [1] amounted to 7 nM; in experiment [2], 24 nM; in experiment [3], 53 nM; in experiment [4], 14 nM; in experiment [5], 119 nM.

The values are drawn from article PMC11931385, “Structural and functional analysis of cancer-associated missense variants in the retinoblastoma protein pocket domain” (The Journal of Biological Chemistry, 2025).
